The text below walks through data of patent US20090324601A1 (published 2009).

The target of experiment [1] is T1, PDGFR-alpha on human osteosarcoma MG-63 cells (human, UniProt P16234 24-1089). Briefly: cell-based or functional assay.
For experiment [2], the target named is T2, murine PDGFRa on NIH3T3 cells (murine, UniProt P26618 25-1089).
T2 construct: whole, on cells; also called mouse PDGFR-alpha
Kind of experiment: FACS on NIH3T3 cells, 10 ug/ml antibody, goat anti-human IgG Cy5.

For another experiment, the target named is PDGFR-beta (UniProt P09619 33-530, limits assumed). Briefly: method not described.
PDGFR-beta, sequence (P09619 33-530 limits assumed): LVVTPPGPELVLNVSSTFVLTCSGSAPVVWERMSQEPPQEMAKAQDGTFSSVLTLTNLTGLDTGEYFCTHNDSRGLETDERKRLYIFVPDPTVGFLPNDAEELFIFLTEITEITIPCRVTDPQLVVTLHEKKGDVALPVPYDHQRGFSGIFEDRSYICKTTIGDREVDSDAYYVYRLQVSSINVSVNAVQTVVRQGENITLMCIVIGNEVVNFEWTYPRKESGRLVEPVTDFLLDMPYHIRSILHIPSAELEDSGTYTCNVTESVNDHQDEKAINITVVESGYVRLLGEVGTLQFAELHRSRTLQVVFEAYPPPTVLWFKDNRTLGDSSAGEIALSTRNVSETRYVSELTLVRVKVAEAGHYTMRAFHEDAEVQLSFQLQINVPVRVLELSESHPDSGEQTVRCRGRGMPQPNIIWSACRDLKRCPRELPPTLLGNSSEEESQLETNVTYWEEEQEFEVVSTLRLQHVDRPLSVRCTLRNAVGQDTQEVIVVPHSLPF
The target in the next experiment is FLT3 (UniProt P36888 27-541, limits assumed). Kind of experiment: method not described.
The target of a further experiment is c-kit (UniProt P10721 26-520, limits assumed). Kind of experiment: method not described.
c-kit, sequence (P10721 26-520 limits assumed): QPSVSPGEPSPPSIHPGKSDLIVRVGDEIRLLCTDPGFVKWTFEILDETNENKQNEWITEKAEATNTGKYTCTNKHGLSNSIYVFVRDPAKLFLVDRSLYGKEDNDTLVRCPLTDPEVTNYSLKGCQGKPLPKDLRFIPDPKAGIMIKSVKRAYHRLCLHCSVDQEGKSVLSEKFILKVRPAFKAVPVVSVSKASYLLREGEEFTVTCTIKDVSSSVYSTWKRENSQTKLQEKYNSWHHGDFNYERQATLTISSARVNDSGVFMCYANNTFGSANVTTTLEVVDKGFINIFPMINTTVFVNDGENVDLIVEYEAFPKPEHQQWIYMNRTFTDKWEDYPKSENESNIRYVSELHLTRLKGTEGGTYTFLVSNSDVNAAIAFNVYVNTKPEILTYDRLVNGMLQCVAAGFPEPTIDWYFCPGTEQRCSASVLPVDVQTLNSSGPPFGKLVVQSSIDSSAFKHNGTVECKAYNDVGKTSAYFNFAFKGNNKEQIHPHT
The target in the next experiment is CSF-1R (UniProt P07333 20-512, limits assumed). Briefly: method not described.
CSF-1R, sequence (P07333 20-512 limits assumed): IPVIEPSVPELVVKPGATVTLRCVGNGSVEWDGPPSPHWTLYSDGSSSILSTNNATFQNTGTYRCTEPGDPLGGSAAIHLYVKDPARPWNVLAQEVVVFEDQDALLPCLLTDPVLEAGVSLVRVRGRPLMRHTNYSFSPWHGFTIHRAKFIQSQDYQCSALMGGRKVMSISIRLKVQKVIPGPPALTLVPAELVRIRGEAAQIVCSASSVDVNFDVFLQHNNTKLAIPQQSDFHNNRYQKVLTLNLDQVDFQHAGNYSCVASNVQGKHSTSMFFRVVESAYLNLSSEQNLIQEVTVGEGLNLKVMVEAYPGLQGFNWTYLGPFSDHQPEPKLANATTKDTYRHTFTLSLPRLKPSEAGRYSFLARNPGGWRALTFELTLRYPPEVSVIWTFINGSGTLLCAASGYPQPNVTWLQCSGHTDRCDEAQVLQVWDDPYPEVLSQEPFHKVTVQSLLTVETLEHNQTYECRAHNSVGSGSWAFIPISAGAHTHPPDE
The target of experiment [3] is T3, Mouse PDGFRa on NIH3T3 cells (mouse, UniProt P26618 25-1089).
T3 construct: whole, on cells; also called endogenous PDGFRa of NIH3T3 murine fibroblasts
T3 sequence (P26618 25-1089): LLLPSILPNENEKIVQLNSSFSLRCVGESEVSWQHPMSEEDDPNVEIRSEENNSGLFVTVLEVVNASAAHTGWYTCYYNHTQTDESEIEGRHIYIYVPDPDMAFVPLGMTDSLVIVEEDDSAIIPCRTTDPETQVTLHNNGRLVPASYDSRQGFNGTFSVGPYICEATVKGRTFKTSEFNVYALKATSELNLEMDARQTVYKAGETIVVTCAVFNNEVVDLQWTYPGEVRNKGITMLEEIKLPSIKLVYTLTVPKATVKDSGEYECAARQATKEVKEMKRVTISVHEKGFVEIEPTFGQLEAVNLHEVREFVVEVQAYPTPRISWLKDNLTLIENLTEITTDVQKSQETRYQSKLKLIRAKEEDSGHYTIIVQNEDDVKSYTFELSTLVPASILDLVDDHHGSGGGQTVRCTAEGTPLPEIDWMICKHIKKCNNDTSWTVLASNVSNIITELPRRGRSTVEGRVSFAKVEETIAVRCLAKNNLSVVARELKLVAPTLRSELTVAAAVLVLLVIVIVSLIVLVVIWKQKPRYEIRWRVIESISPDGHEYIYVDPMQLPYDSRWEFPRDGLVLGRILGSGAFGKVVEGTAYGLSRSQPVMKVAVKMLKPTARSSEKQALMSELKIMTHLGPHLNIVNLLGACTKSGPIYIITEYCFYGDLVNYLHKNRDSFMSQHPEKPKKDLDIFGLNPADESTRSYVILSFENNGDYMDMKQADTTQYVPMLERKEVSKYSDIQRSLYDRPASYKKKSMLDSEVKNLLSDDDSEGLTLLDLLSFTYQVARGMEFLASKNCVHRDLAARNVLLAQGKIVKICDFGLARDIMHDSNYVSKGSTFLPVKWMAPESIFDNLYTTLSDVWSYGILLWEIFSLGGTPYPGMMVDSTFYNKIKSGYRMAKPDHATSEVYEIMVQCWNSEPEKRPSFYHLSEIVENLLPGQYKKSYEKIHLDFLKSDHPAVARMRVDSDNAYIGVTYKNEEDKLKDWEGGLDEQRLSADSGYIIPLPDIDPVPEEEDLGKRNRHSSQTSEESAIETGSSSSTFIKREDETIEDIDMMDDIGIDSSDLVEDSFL
Briefly: FACS on NIH3T3 cells, 10 ug/ml antibody.

The target of experiment [4] is T1, PDGFR-alpha on human osteosarcoma MG-63 …. Briefly: cell-based or functional assay. This is another data set of the same source.
The target is the same in experiment [5]. Briefly: FACS titration on MG-63 cells, 4 C, Cy5 goat anti-human detection.
Experiment [6] addresses T4, Recombinant human sPDGFR-alpha (R&D catalog# 322-PR/CF) (human, UniProt P16234 24-528).
T4 construct: extracellular domain; Bought reagent; also called soluble PDGFRa; recombinant soluble PDGFR-alpha extracellular domain
Kind of experiment: soluble PDGFRa binding ELISA, plate coated with recombinant human PDGFR-alpha.

The target of experiment [7] is T4, Recombinant human sPDGFR-alpha (R&D …). Kind of experiment: Biacore T100 SPR, 22 C, mAb immobilised on CM5, sPDGFR-alpha injected, 1:1 fit. (In general: Surface plasmon resonance follows binding to a sensor surface in real time, without labels.)

Changes are numbered by the printed parent chain.

T2 sequence (P26618 25-1089): as above
T4 sequence (P16234 24-528): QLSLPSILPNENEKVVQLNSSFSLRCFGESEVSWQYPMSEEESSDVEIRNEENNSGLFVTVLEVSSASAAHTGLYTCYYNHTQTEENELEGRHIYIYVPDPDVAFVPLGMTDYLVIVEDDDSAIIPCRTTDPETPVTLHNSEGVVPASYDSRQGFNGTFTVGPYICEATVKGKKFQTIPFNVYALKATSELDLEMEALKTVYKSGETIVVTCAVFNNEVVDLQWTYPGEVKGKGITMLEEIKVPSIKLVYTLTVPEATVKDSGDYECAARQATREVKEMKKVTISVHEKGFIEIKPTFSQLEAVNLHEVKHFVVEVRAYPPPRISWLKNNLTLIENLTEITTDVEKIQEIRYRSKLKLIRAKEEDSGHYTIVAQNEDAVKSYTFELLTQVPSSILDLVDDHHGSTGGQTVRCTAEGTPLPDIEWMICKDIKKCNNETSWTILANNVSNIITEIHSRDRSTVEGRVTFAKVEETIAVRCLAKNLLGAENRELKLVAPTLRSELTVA
T1 sequence (P16234 24-1089): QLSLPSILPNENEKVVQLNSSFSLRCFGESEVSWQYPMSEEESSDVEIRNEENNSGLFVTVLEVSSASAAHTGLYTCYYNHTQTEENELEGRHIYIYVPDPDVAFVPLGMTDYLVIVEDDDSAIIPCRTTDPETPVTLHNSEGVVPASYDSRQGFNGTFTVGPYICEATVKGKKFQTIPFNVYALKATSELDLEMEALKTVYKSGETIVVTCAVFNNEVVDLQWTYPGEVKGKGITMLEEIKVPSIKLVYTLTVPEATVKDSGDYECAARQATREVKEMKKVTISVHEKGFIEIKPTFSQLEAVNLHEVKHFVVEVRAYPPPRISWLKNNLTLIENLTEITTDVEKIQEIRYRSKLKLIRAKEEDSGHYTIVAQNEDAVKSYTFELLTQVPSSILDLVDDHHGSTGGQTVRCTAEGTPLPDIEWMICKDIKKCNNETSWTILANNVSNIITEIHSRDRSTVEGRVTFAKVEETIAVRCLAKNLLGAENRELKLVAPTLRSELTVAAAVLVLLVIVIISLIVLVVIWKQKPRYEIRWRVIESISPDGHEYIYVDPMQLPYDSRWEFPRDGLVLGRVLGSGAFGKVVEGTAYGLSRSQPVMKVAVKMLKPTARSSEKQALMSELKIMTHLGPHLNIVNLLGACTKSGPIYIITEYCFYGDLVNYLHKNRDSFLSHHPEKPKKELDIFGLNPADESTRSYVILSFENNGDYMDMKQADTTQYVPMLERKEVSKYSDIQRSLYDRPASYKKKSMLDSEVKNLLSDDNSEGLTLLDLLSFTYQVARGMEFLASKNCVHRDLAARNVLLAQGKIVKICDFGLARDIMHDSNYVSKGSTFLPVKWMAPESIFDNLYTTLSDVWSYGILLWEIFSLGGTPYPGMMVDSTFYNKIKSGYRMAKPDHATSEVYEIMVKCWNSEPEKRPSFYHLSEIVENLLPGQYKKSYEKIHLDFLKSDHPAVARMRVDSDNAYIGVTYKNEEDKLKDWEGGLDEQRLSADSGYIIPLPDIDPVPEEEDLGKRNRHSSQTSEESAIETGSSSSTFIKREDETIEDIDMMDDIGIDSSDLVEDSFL

B1: 2.1623.2 (antibody, V domains shown)
VH: QVQLVESGGGLVKPGGSLRLSCAASGFTFSDYYMNWIRQAPGKGLEWVSFISSSGSTIYYADSVKGRFTISRDNAKNSLYLQMNSLRAEDTAVYYCARDGHIAARGMDVWGQGTTVTVSS
VL: DIQMTQSPSSLSASVGDRVTITCRASQSFSRYINWYQQKPGKAPKLLIYAASSLQGGVPSRFSGSGSGTDFTLAISSLQPEDFATYYCQQTYSTPPITFGQGTRLEIK
As to B1, in experiment [1], the “Proliferation Assay: IC50 ng/ml (1-6-06)” value is 755 ng/mL, the “Proliferation Assay: IC50 ng/ml (1-23-06)” value was found to be 982 ng/mL and the “pTyr Assay: % Inhibition @ 2 µg/ml” value was found to be 97%. Also, the binding result in experiment [2] is on record as “binds”.

B2: 2.1853.3 (antibody, V domains shown)
VH: B1 VH with F50Y, T57I, H101R, A103V
VL: B1 VL with S12C, Q27R, F29I, S30T, I33L, A50G, G56S, A74T, T91S
Take B2: in [1], the “Proliferation Assay: IC50 ng/ml (1-6-06)” value was determined as 1120 ng/mL, the “Proliferation Assay: IC50 ng/ml (1-23-06)” value is 2680 ng/mL and the “pTyr Assay: % Inhibition @ 2 µg/ml” value worked out at 98%. For the same molecule, the binding result in experiment [2] is reported as “binds”.

B3: 2.1623.2 (antibody, V domains shown)
VH: B1 VH
VL: B1 VL
notes: Variable regions only
Take B3: the binding result with PDGFR-beta is “no binding”; with FLT3 it was “no binding”; with c-kit it was “no binding”; in the experiment with CSF-1R, “no binding”; in [3], “binds”.

B4: 2.1853.3 (antibody, V domains shown)
VH: B1 VH with F50Y, T57I, H101R, A103V
VL: B1 VL with S12C, Q27R, F29I, S30T, I33L, A50G, G56S, A74T, T91S
notes: Variable regions only
Consider B4, for which the binding result in the experiment with PDGFR-beta is “no binding”; in the experiment with FLT3, “no binding”; with c-kit, “no binding”; with CSF-1R, “no binding”; in [3], “binds”.

B5: 2.175.3 (antibody, V domains shown)
VH: QVHLVESGGGLVKPGGSLRLSCAASGFTFSDYYMHWIRQAPGKGLEWVSYISRSGSLIYYVDSVKGRFTISRDNAKNSLNLQMNSLRAEDTAVYYCARGGPYSGSPFDYWGQGTLVTVSS
VL: DIQMTQSPSSLSASVGDRVTITCRPSQRISRYLNWYQQKPGKAPKFLIYAASSLPSGVPSRFSGSGSGTDFTLTISTLQPEDFATYYCQQSYSTPPWTFGQGTKVEIK
notes: identified by its values; also called mAb 2.175.3
As usually defined, the Kd is the concentration at which binding is half-saturated. The term IC50 denotes the point on the concentration scale where inhibition reaches its midpoint. By koff is commonly meant a measure of how fast the partners let go of each other. As a reminder, the kon is a measure of how fast the partners come together. With B5, in experiment [1], the “Proliferation Assay: IC50 ng/ml (1-6-06)” value came out at 67.3 ng/mL, the “Proliferation Assay: IC50 ng/ml (1-23-06)” value was 56.1 ng/mL, the “Proliferation Assay: IC50 (1-6-06)” value amounted to 0.45 nM and the “Proliferation Assay: IC50 (1-23-06)” value came to 0.37 nM. Besides, the “pTyr Assay: % Inhibition @ 2 µg/ml” value in experiment [1] was found to be 100%. For the same molecule, the “PTYR Assay IC50” value in [4] amounted to 0.028 µg/mL. For the same molecule, the binding result in experiment [2] is reported as “binds”. Further, the dissociation constant Kd in [5] amounted to 0.328 nM. The concentration for half-maximal inhibition (IC50) in experiment [6] was 0.038 µg/mL. In experiment [7], the Kd stood at 0.05 nM, the dissociation rate constant (koff) was 2.59e-05 s⁻¹ and the association rate constant (kon) stood at 516000 M⁻¹ s⁻¹.
